Results taken from PMC9334453, “A native IgE in complex with profilin provides insights into allergen recognition and cross-reactivity” (Communications Biology, 2022).

What was measured:
Conditions in all cases: both partners purified
biotinylated rHev b 8 [1] = biological target: T1, biotinylated rHev b 8 (Hevea brasiliensis, biotin (1:5 profilin:biotin ratio; sites not stated)); experiment: BLI; same BLI data (biotinylated rHev b 8 on streptavidin, 25 °C, PBS pH 7.4, 0.05% Tween 20, 1 M NaCl); kon from the association step and koff from the dissociation step fitted separately in Prism 8, KD = koff/kon
T1 construct: profilin Hev b 8, Hevea brasiliensis, named 'rHev b 8' in the BLI methods; The BLI methods say only 'Profilin rHev b 8'; also called biotinylated profilin; biotinylated allergen; source: E. coli Rosetta (DE3), purified (HisTrap), then biotinylated at a 1:5 profilin:biotin ratio and dialyzed
T1 chain: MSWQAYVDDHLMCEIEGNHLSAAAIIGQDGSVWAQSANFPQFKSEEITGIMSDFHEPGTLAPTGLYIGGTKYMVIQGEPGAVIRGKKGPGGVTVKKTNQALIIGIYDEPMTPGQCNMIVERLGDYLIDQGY

biotinylated rHev b 8 [2] = biological target: T1, biotinylated rHev b 8; experiment: BLI; biotinylated rHev b 8 (125 nM) on streptavidin biosensors; Fab/IgE 2F5 at 62.5-2000 nM; 25 °C; PBS pH 7.4, 0.05% Tween 20, 1 M NaCl; 1:1 global fit considering nonspecific binding (Association-Dissociation model, GraphPad Prism 8)
[3] = biological target: T2, DDDK-rHev b 8 (rHev b 8 with the last four residues of the enterokinase cleavage site at the N-terminus) (Hevea brasiliensis); experiment: MALDI-TOF mass spectrometry; sinapinic acid matrix; samples of Fab/IgE 2F5 and of its complex with rHev b 8 (whole construct); the peaks of the complex and of the dimeric Fab were not calibrated
T2 construct: last four residues of the enterokinase cleavage site left at the N-terminus (D-3, D-2, D-1, K-0); D-2 makes a hydrogen bond with Y49 of the Fab light chain; profilin Hev b 8, Hevea brasiliensis, from M1; The whole construct was expected at 18,283 Da but measured 14,625 Da (14,629 Da in another paragraph): only DDDK is left of the N-terminal extension; also called DDDK-Hev b 8; rHev b 8 whole …
T2 chain: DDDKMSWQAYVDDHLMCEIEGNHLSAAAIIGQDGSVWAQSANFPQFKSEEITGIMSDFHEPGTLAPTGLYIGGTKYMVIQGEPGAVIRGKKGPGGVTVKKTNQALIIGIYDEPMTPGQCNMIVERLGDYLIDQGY

[4] = biological target: T3, recombinant maize profilin (rZea m 12) (Zea mays); experiment: ELISA; plates coated with 100 μL of 0.7 μM profilin in PBS pH 7.4, blocked with 1% BSA; IgE 2F5 in PBS, 1 h 37 °C; detected with HRP anti-mouse IgE Fcε, ABTS, 405 nm; n = 4
T3 construct: profilin Zea m 12, maize; has D14, G98, V118, E128; The mutagenesis primers encode KKT(N)MSL and YLI(D)QGF around positions 98 and 128
T3 chain: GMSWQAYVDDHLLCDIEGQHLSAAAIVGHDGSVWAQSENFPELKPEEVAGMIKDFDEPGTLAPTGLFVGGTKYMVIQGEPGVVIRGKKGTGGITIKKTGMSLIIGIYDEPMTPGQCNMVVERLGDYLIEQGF

[5] = biological target: T2, DDDK-rHev b 8 (rHev b 8 with the last …); experiment: as above

B1: Fab/IgE 2F5 (papain Fab fragment of the murine IgE 2F5) (Fab, V domains shown)
VH: EVQLVESGGGLVQPKGSLKLSCAASGFTFNTYAMNWVRQAPGKGLEWVARIRTKTNNYVTYYADSVKDRFTISRDDSQSMLYLQMNNLKTEDTAMYYCVRHVGDYWGQGTSVTVSS
VL: DIQMTQSPASLSASVGETVTITCRASGNIHNYLAWFQQKQGKSPQLLVYNAKTLADGVPSRFSGSGSGTQYSLKINSLQPEDFGSYYCQHFWSTPYTFGGGTKLEIK
notes: VH and Cε1; papain cleavage site said to be R209/P210 between Cε1 and Cε2; light chain of IgE 2F5; also called the Fab; source: papain digest of IgE 2F5 (36 h, 37 °C), purified (Superdex 75 SEC, Mono Q)
Biotinylated rHev b 8 [1]
  Kd: 0.369 ± 0.0038 µM
Biotinylated rHev b 8 [2]
  Kd: 0.37 ± 0.0068 µM
[3]
  binding result: binds

B2: murine monoclonal IgE antibody 2F5 (anti-profilin Hev b 8) (antibody, V domains shown)
VH: EVQLVESGGGLVQPKGSLKLSCAASGFTFNTYAMNWVRQAPGKGLEWVARIRTKTNNYVTYYADSVKDRFTISRDDSQSMLYLQMNNLKTEDTAMYYCVRHVGDYWGQGTSVTVSS
VL: DIQMTQSPASLSASVGETVTITCRASGNIHNYLAWFQQKQGKSPQLLVYNAKTLADGVPSRFSGSGSGTQYSLKINSLQPEDFGSYYCQHFWSTPYTFGGGTKLEIK
notes: rest of the murine IgE (epsilon) heavy chain constant region after the papain site R209/P210 (Cε2 onward); as the light chain of m2; Native, non-recombinant IgE with naturally paired chains; also called IgE 2F5; mAb 2F5; copies: 2 + 2
[4]
  binding result: no binding
[5]
  binding result: binds
